Changes are numbered by the printed parent chain. Numbers in names are those of the source.

To fix the notation:
B1: E103M (designed binder)
chain: SMEEEVEKAAKEYEKKKKEAIEKHLEKLKAKDKEAAERFLKELEEAAKEYAKDEAKTMSEEEAKRRAKKYKEKVLLSELSEEEQKEIKEAEEKLVRTILKYVMEAAK
B2: A105P (designed binder)
chain: B1 chain with M103E, A105P
B3: A10R (designed binder)
chain: B1 chain with A10R, M103E
B4: A10M (designed binder)
chain: B1 chain with A10M, M103E
B5: V95G (designed binder)
chain: B1 chain with V95G, M103E
B6: L25P (designed binder)
chain: B1 chain with L25P, M103E
B7: K73L (designed binder)
chain: B1 chain with K73L, M103E
B8: K27L (designed binder)
chain: B1 chain with K27L, M103E
B9: A30R (designed binder)
chain: B1 chain with A30R, M103E
B10: K8E (designed binder)
chain: B1 chain with K8E, M103E
B11: A35P (designed binder)
chain: B1 chain with A35P, M103E
B12: A55P (designed binder)
chain: B1 chain with A55P, M103E
B13: R38S (designed binder)
chain: B1 chain with R38S, M103E
B14: E42P (designed binder)
chain: B1 chain with E42P, M103E
B15: K17G (designed binder)
chain: B1 chain with K17G, M103E
B16: A36D (designed binder)
chain: B1 chain with A36D, M103E
B17: L75I (designed binder)
chain: B1 chain with L75I, M103E
B18: K100V (designed binder)
chain: B1 chain with K100V, M103E
B19: E82V (designed binder)
chain: B1 chain with E82V, M103E
B20: I87S (designed binder)
chain: B1 chain with I87S, M103E
B21: E14H (designed binder)
chain: B1 chain with E14H, M103E
B22: D53I (designed binder)
chain: B1 chain with D53I, M103E
B23: E3Y (designed binder)
chain: B1 chain with E3Y, M103E
B24: S1F (designed binder)
chain: B1 chain with S1F, M103E
B25: L94G (designed binder)
chain: B1 chain with L94G, M103E
B26: K107H (designed binder)
chain: B1 chain with M103E, K107H
B27: A47L (designed binder)
chain: B1 chain with A47L, M103E
B28: K8L (designed binder)
chain: B1 chain with K8L, M103E
B29: K107P (designed binder)
chain: B1 chain with M103E, K107P
B30: A9R (designed binder)
chain: B1 chain with A9R, M103E
B31: K8D (designed binder)
chain: B1 chain with K8D, M103E
B32: E72H (designed binder)
chain: B1 chain with E72H, M103E
B33: E82K (designed binder)
chain: B1 chain with E82K, M103E
B34: E78K (designed binder)
chain: B1 chain with E78K, M103E
B35: E92I (designed binder)
chain: B1 chain with E92I, M103E
B36: A67Q (designed binder)
chain: B1 chain with A67Q, M103E
B37: A9V (designed binder)
chain: B1 chain with A9V, M103E
B38: Y13Q (designed binder)
chain: B1 chain with Y13Q, M103E
B39: A20L (designed binder)
chain: B1 chain with A20L, M103E
B40: L76R (designed binder)
chain: B1 chain with L76R, M103E

The target of this experiment is T1, TNFR1 (Homo sapiens, UniProt P19438).
T1 chain: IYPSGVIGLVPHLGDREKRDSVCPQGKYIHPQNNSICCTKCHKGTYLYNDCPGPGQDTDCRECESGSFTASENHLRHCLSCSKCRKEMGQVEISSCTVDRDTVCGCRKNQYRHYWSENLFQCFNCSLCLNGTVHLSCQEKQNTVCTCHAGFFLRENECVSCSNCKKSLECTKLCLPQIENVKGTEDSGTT
Description: yeast display SC50.
As for B1, the “apparent Kd (screen)” value was found to be 0.593 nM. For B2, the “apparent Kd (screen)” value was 0.653 nM. The figure for B3 is 0.446 nM. To B4 belongs 2.73 nM; to B5, 5.84 nM; to B6, 8.56 nM. B7: the “apparent Kd (screen)” value is 7.07 nM. The figure for B8 is 1.16 nM; for B9 it is 0.79 nM. To B10 belongs 1.54 nM.

For the molecule B11, the “apparent Kd (screen)” value was 1.4 nM. To B12 belongs 12.5 nM. To B13 belongs 2.73 nM; to B14, 4.83 nM. B15: the “apparent Kd (screen)” value came to 2.73 nM. To B16 belongs 0.446 nM; to B17, 0.79 nM. The figure for B18 is 1.4 nM. The figure for B19 is 0.539 nM; for B20 it is 12.5 nM. Consider B21, for which the “apparent Kd (screen)” value turned out to be 2.73 nM.

Consider B22, for which the “apparent Kd (screen)” value was found to be 12.5 nM. To B23 belongs 5.84 nM; to B24, 4.39 nM. Regarding B25, the “apparent Kd (screen)” value was found to be 2.25 nM. The figure for B26 is 1.86 nM; for B27 it is 13.8 nM; for B28 it is 0.718 nM. The figure for B29 is 0.956 nM; for B30 it is 0.335 nM. The figure for B31 is 1.4 nM. As to B32, the “apparent Kd (screen)” value is 2.73 nM. As for B33, the “apparent Kd (screen)” value stood at 0.446 nM. To B34 belongs 4.83 nM; to B35, 12.5 nM. Regarding B36, the “apparent Kd (screen)” value was 11.4 nM. The figure for B37 is 0.49 nM; for B38 it is 1.69 nM.

Regarding B39, the “apparent Kd (screen)” value was found to be 0.405 nM. With B40, the “apparent Kd (screen)” value amounted to 7.07 nM.

The record behind these values is PMC12416549 (2024).
